The values that follow come from patent US20250051443A1 (NATIONAL RESEARCH COUNCIL OF CANADA, published 2025).

Where a chain is given by its changes, count along the chain named.

The chains are these.
B1: F332-5F2 (antibody, mouse IgG2b, V domains shown)
VH: QVQLQQPGAELGKPGTSVKLSCKASGYTFTSYWMHWVKQRPGQGLEWIGNINPNGGDSNYNEKFKSKATLTVDKSSSTAYMQLSTLTSEDSAVYYCTRDISGQYYFDFWGQGTSLTVFS
VL: DILMSQSPSSLAVSAGEQVTMSCKSSQSLLNSRTRKNYLAWYQQKPGQSPKLLIFWASTRKSGVPDRFTGSGSGTYFTLTISSVQAEDLAVYYCTQSYNLRTFGGGTKLEIK
notes: also called F332-5F2-2; F332-5F2 (6G8, 13A3)
B2: F332-7C5 (antibody, mouse IgG2a, V domains shown)
VH: QVQLQQPGAELGKPGTSVKLSCKASGYTFTSYWMHWVKQRPGQGLEWIGNINPSSGITNYNERFKNKATLTVDKSSTTAYMQLSILTSEDSAVYYCSRDISGQYYFNFWGQGTTLTVSS
VL: B1 VL with L3V, Q18K, F55Y, K61E, S71T, Y76D, T95K
notes: also called F332-7C5-2; F332-7C5 (5E12, 10A8)
B3: F332-7C9 (antibody, mouse IgG2a, V domains shown)
VH: QVQLQQSGPELVKPGASVRISCKASGYTFTSHYLHWVKQRPGQGFEWIGWIYPGDGNTRYNEKFKDRATLTADKSSSTAYLHLSSLTSEDSAVYFCARDAGYYFDYWGQGTTLAVSS
VL: B1 VL with L3V, Q18K, P50L, L52V, F55Y, K61E, Y76D, T95K, N99S
notes: also called F332-7C9-2; F332-7C9 (5C7, 7D10)

The first test addresses T1, human CD3 (human, UniProt P07766 23-207; P09693 23-182; P04234 22-171). The experiment in a line: cell-based or functional assay.
In the case of B1, the “% max ref. OKT3 (dTomato activation)” value worked out at 98% and the “EC50 of dTomato induction (CD69 promoter), Jurkat-CD69-dTomato cells, 24 h” value (“EC50 of dTomato induction” below) came to 0.19 µg/mL.
With B2, the “% max ref. OKT3 (dTomato activation)” value amounted to 102% and the “EC50 of dTomato induction” value was determined as 0.23 µg/mL.
For B3, the “% max ref. OKT3 (dTomato activation)” value stood at 91% and the “EC50 of dTomato induction” value was 0.24 µg/mL.

A further test addresses T1, human CD3. Kind of test: cell-based or functional assay. The source holds these as a separate data set.
B1: the “IC50, indirect ADC surrogate growth inhibition (anti-mouse-DM1) on Jurkat cells” value was found to be 0.173 nM and the “Span, indirect ADC surrogate growth inhibition on Jurkat cells” value is 95%.
As for B2, the “IC50, indirect ADC surrogate growth inhibition (anti-mouse-DM1) on Jurkat cells” value was found to be 0.062 nM and the “Span, indirect ADC surrogate growth inhibition on Jurkat cells” value came to 95%.
Take B3: the “IC50, indirect ADC surrogate growth inhibition (anti-mouse-DM1) on Jurkat cells” value is 0.045 nM and the “Span, indirect ADC surrogate growth inhibition on Jurkat cells” value is 96%.

A further test has as its target T1, human CD3. The experiment in a line: flow cytometry, hybridoma supernatant on CD3+ Jurkat cells. In outline:
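Hybridoma supernatants stained onto CD3+ Jurkat T-cells and analysed by flow cytometry; specific binding taken as mean fluorescence intensity increase over CD3-negative J.RT3-T3.5 cells. Mouse IgG and anti-GFP supernatant served as negative controls, AF488-labelled OKT3 as positive control.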
A general note: A flow cytometer gives signals particle by particle.
Regarding B1, the MFI was 292 MFI.
With B2, the MFI amounted to 334 MFI.
On the same count and under the same terms, in the case of B3 it was 285 MFI.

The target of the next test is T1, human CD3. Kind of test: apparent KD (KDapp), flow cytometry titration on Jurkat cells. In outline:
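Jurkat cells incubated 2 h on ice with 1/3 serial dilutions of purified mouse mAbs from 300 nM, then FITC anti-mouse Fc F(ab′)2 for 1 h. Binding read by flow cytometry on 2,000 viable single cells, with propidium iodide exclusion.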
As to B1, the Kd was 0.4 nM.
Consider B2, for which the Kd is 0.6 nM.
B3: the Kd is 0.5 nM.

Another test deals with T1, human CD3. The experiment in a line: flow competition on Jurkat, 100 nM unlabeled mAb; competitor AF488-SK7 1.5 nM. In outline: (§1)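 Jurkat cells incubated with a fixed concentration of AF488-labeled anti-CD3 mAb plus 100 nM unlabeled mAb, with competition read by flow cytometry as impaired labeled-mAb binding. In-house AF488-OKT3 mIgG2b was desalted and checked for integrity by UPLC-SEC.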
B1: the “% residual fluorescence of labeled mAb” value is 49%.
On the same count and under the same terms, in the case of B2 it was 39%; in that of B3, 42%.

The target of the next test is T1, human CD3. Kind of test: flow competition on Jurkat, 100 nM unlabeled mAb; competitor AF488-UCHT1 5 nM. In outline:
as §1
Consider B1, for which the “% residual fluorescence of labeled mAb” value is 74%.
With B2, the “% residual fluorescence of labeled mAb” value was found to be 64%.
With B3, the “% residual fluorescence of labeled mAb” value was determined as 68%.

For a further test, the target named is T1, human CD3. Kind of test: apparent KD (KDapp), flow cytometry titration on purified primary human T cells. In outline: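 Freshly isolated human T cells from PBMCs (negative pan-T selection), 1×10⁵ per test, stained 2 h at 4 °C with eight-point mAb dilutions from 300 or 100 nM, then APC anti-mouse IgG secondary 30 min. Background-subtracted flow MFI fitted by one-site specific binding with Hill slope for KDapp.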
B1: the Kd is 0.37 nM.
On to B2, for which the Kd was determined as 0.41 nM.
Still for that read-out and setting: in the case of B3 it was 0.16 nM.

In the next test the target is T1, human CD3. Kind of test: flow competition on Jurkat, 100 nM unlabeled mAb; competitor AF488-SP34.2 20 nM. In outline: as §1
Take B1: the “% residual fluorescence of labeled mAb” value is 9%.
In the case of B2, the “% residual fluorescence of labeled mAb” value was 7%.
In the case of B3, the “% residual fluorescence of labeled mAb” value was 9%.

The target in the next test is T1, human CD3. Kind of test: flow competition on Jurkat, 100 nM unlabeled mAb; competitor AF488-OKT-3 mIgG2b 1.5 nM. In outline:
as §1
Consider B1, for which the “% residual fluorescence of labeled mAb” value turned out to be 90%.
With B2, the “% residual fluorescence of labeled mAb” value turned out to be 79%.
As for B3, the “% residual fluorescence of labeled mAb” value turned out to be 82%.
